Test results published in patent US20230227572A1 (HEFEI TG IMMUNOPHARMA, published 2023).

Tests used:
[1] = biological target: T1, recombinant human PVRIG-human IgG1 Fc fusion protein (human); assay: SPR (Biacore), human PVRIG-human IgG1 Fc on chip, antibody in flow, 1:1 model
T1 construct: no linker is told; also called human PVRIG-Fc fusion protein
Experimental: The binding kinetics and dissociation equilibrium constant (KD) of the antibodies of the present disclosure to human PVRIG were determined using the surface plasmon resonance (Biacore) assay. Briefly, a CMS chip was coated with human PVRIG-human IgG1 Fc fusion protein, and after being blocked, antibody solutions of different concentrations passed through the CMS chip at a fixed flow rate and bound to antigen for 2 min, followed by transfer to dissociation buffer for 6 min for determination of the dissociation rate. The kinetics were analyzed using a 1:1 binding model.
Target sequence in this assay (chain, as listed by the source limits assumed): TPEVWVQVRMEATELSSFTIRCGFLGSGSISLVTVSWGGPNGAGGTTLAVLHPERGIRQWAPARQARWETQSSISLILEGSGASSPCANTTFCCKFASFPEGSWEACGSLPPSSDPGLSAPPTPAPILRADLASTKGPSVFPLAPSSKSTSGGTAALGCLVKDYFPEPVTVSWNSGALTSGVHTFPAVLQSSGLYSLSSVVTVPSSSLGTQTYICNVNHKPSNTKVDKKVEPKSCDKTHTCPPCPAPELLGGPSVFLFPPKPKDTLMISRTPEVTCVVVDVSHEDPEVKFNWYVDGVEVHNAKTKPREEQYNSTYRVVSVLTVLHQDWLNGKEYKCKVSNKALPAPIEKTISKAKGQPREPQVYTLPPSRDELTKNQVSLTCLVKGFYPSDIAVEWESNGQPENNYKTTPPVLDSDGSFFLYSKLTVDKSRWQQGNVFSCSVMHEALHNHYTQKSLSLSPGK

[2] = biological target: T2, human PVRIG protein on the cell membrane surface (human, UniProt Q6DKI7 41-326); assay: flow cytometry on 293T-human PVRIG cells, AF647 goat anti-mouse IgG, percent positive cells
T2 construct: Also used here for the natural PVRIG on NKG cells and human lymphocytes; also called 293T-human PVRIG cell line; PVRIG on NKG cell line
T2 sequence: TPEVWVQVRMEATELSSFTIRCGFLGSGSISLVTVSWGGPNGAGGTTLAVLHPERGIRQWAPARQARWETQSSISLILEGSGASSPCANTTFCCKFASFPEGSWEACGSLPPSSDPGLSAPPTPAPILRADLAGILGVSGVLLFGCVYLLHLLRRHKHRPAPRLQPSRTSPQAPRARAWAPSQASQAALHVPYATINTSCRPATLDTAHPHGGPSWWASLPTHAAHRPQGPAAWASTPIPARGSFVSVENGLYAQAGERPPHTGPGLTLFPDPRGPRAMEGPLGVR
Experimental: The activity of murine antibodies from different clones in binding to human PVRIG protein on the cell membrane surface was evaluated by flow cytometry. The experimental procedure was as follows:
The 293T-human PVRIG cell line was harvested, washed with 1×PBS and resuspended, the cells were counted. Then […] were placed into each 1.5 ml Ep tube, the respective murine antibody (Antibody 1, Antibody 2, Antibody 3, or Antibody 4) was added at different concentrations, the mixture was incubated at 4° C. for 30 min, then washed with 1×PBS, and centrifuged at 3,500 rpm for 5 min to harvest the cells. The cell pellet was resuspended in 100 μl of 1×PBS, a AF647-labeled goat anti-mouse IgG antibody (available from Biolegend) was added, the mixture was incubated at 4° C. for 30 min in the dark, followed by washing twice with 1×PBS and harvesting the cells by centrifugation at 3,500 rpm for 5 min. The cell pellet was resuspended with 200 μl of 1×PBS and measured using a flow cytometer (BD LSR II).

[3] = biological target: T1, recombinant human PVRIG-human IgG1 Fc …; assay: ELISA, plate coated with human PVRIG-human IgG1 Fc at 1.0 µg/ml, HRP goat anti-mouse IgG, OD450
Experimental: The activity of the murine antibodies from different clones in binding to the human PVRIG-Fc fusion protein was evaluated by ELISA. The experimental procedure was as follows:
The recombinant human PVRIG-human IgG1 Fc fusion protein was diluted to 1.0 μg/ml in 1×PBS (phosphate buffer), the dilution was plated onto a 96-well ELISA plate overnight at 4° C. by 100 μl/well, the plate was washed 3 times with PBST (0.05% Tween20-PBS) and blocked with 1% BSA, followed by incubation at 37° C. for 2 h. The plate was washed 3 times with PBST, and murine antibodies (Antibody 1, Antibody 2, Antibody 3, or Antibody 4) diluted in multiple ratios were respectively added to set 8 concentrations, and the mixture was incubated at 37° C. for 1 h using mouse IgG1 (available from Biolegend) as a negative control at 100 μl/well. The plate was washed 3 times with PBST, and 100 μl of horseradish peroxidase (HRP)-labeled goat anti-mouse IgG antibody (available from BOSTER, 1:10,000 dilution) was added to each well, and the mixture was incubated at 37° C. for 1 h. After washing, 100 μl of TMB substrate solution was added to each well for developing for 10 to 15 min in the dark, 100 μl of stop solution (2M H2SO4) was added to each well, the solution was measured with a microplate reader immediately after the reaction stopped, and the absorbance at 450 nm (OD450) was read.

[4] = biological target: T3, recombinant Macaca fascicularis PVRIG-human IgG1 Fc fusion protein (Macaca fascicularis; human); assay: ELISA, plate coated with Macaca fascicularis PVRIG-human IgG1 Fc at 1.0 µg/ml, HRP goat anti-mouse IgG, OD450
T3 construct: Prepared 'in a similar manner' to the human PVRIG fusion
T3 sequence (chain, as listed by the source limits assumed): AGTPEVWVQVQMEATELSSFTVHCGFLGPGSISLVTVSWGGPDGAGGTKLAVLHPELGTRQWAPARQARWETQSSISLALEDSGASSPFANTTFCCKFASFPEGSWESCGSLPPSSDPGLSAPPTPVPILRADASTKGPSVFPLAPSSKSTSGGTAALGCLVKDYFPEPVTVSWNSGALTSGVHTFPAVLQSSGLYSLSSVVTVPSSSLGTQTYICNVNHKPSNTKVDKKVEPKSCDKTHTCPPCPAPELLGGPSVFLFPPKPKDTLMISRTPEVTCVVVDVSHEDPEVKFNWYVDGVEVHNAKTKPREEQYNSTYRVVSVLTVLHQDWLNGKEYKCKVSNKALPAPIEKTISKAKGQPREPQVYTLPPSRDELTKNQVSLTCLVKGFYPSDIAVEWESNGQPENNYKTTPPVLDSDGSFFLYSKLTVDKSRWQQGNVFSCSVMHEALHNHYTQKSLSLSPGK
Experimental: The activity of the murine antibody in binding to the Macaca fascicularis PVRIG was evaluated by an ELISA method. The experimental procedure was as follows:
The recombinant Macaca fascicularis PVRIG-human IgG1 Fc fusion protein was diluted to 1.0 μg/ml in 1×PBS (phosphate buffer), the dilution was placed in a 96-well ELISA plate overnight at 4° C. by 100 μl/well, the plate was washed 3 times with PBST (0.05% Tween20-PBS) and blocked with 1% BSA, and the mixture was incubated for 2 h at 37° C. The plate was washed 3 times with PBST, and the murine antibody (Antibody 4) diluted in multiple ratios were respectively added to set 11 concentrations, and the mixture was incubated at 37° C. for 1 h using mouse IgG1 as a negative control at 100 μl/well. The plate was washed 3 times with PBST, 100 μl of horseradish peroxidase (HRP)-labeled goat anti-mouse IgG antibody (available from BOSTER, 1:10,000 dilution) was added to each well, and the mixture was incubated at 37° C. for 1 h. After washing, 100 μl of TMB substrate solution was added to each well for developing for 10 to 15 min in the dark, 100 μl of stop solution (2M H2SO4) was added to each well, the solution was measured with a microplate reader immediately after the reaction stopped, and the absorbance at 450 nm (OD450) was read. […]

[5] = biological target: T1, recombinant human PVRIG-human IgG1 Fc …; assay: flow cytometry blocking assay: antibody plus 10 µg/ml Fc fusion protein on 293T-human CD112 cells, AF647 anti-human IgG-Fc; y axis Human PVRIG-Fc fusion protein binding (%); blocked ligand: human CD112 on the cells
Experimental: The activity of murine antibodies from different clones in blocking the binding of the human PVRIG to its ligand CD112 was evaluated by flow cytometry. The experimental procedure was as follows:
The 293T-human CD112 cell line was harvested, and washed resuspended with 1×PBS to count the cells. […] The cell pellet was resuspended in 100 μl of 1×PBS, a AF647-labeled mouse anti-human IgG-Fc antibody (available from Biolegend) was added, the mixture was incubated at 4° C. for 30 min in the dark, followed by washing twice with 1×PBS and harvesting the cells by centrifugation at 3,500 rpm for 5 min. The cell pellet was resuspended with 200 ul of 1×PBS and measured using a flow cytometer (BD LSR II).

B1: Antibody 4 (antibody, V domains shown)
VH: QVQLQQSGAELVKPGASVKISCKATGYTFSSFSIEWVKQRPGHGLAWIGEILPGSNSTNYNEKFKGKATFTADTSSNTAYMQLSSLTSEDSAVYYCSSYWFAYWGQGTLVTVSA
VL: DIVMTQSPSSLSVSAGEKVTMSCKSSQSLLNSGNQKNYLAWYQQKPGQPPKLLIYGASTRESGVPDRFTGSGSGTDFTLTISSVQAEDLAVYYCQNAHSYPPTFAAGTKLELK
notes: Murine monoclonal antibody from hybridoma ascites; Used AF647-labelled in several flow cytometry assays; also called murine antibody (Antibody 4); murine Antibody 4
[1]
  Kd: ≤ 4.1 pM
  koff: ≤ 1e-06 s⁻¹
  kon: 244000 M⁻¹ s⁻¹
[2]
  EC50 (read off the curve): ~0.01 µg/mL
[3]
  EC50 (read off the curve): ~0.02 µg/mL
[4]
  EC50 (read off the curve): ~0.04 µg/mL
[5]
  IC50 (read off the curve): ~3 µg/mL
